Experimental data: patent US20260028403A1 (Zymeworks, published 2026)

Target: huCD28 (human, UniProt P10747 19-152, limits assumed)
Assay: SPR, OAA format

Fold-change from WT	Kd	koff	kon	Binder
3.08 fold	271 nM	0.0258 s⁻¹	96800 M⁻¹ s⁻¹	v37870 (antibody, V domains shown, OAA format as v34891; also called huTN228 T1036A (VL) OAA) VH: QVQLQESGPGLVKPSETLSLTCAVSGFSLTSYGVHWIRQPPGKGLEWLGVIWPGGGTNFNSALMSRLTISEDTSKNQVSLKLSSVTAADTAVYYCARDRAYGNYLYAMDYWGQGTLVTVSS VL: DIQMTQSPSSLSASVGDRVTITCRASESVEYYVASLMQWYQQKPGKAPKLLIYAASNVDSGVPSRFSGSGSGTDFTLTISSLQPEDIATYYCQQSRKVPFTFGGGTKVEIK
0.88 fold	77.4 nM	0.00487 s⁻¹	63000 M⁻¹ s⁻¹	v37897 (antibody, V domains shown, OAA format as v34891; also called huTN228 V1087F (VH) OAA) VH: QVQLQESGPGLVKPSETLSLTCAVSGFSLTSYGVHWIRQPPGKGLEWLGVIWPGGGTNFNSALMSRLTISEDTSKNQFSLKLSSVTAADTAVYYCARDRAYGNYLYAMDYWGQGTLVTVSS VL: DIQMTQSPSSLSASVGDRVTITCRASESVEYYVTSLMQWYQQKPGKAPKLLIYAASNVDSGVPSRFSGSGSGTDFTLTISSLQPEDIATYYCQQSRKVPFTFGGGTKVEIK
1.93 fold	170 nM	0.0117 s⁻¹	70800 M⁻¹ s⁻¹	v37878 (antibody, V domains shown, OAA format as v34891; also called huTN228 K1109A (VL) OAA) VH: QVQLQESGPGLVKPSETLSLTCAVSGFSLTSYGVHWIRQPPGKGLEWLGVIWPGGGTNFNSALMSRLTISEDTSKNQVSLKLSSVTAADTAVYYCARDRAYGNYLYAMDYWGQGTLVTVSS VL: DIQMTQSPSSLSASVGDRVTITCRASESVEYYVTSLMQWYQQKPGKAPKLLIYAASNVDSGVPSRFSGSGSGTDFTLTISSLQPEDIATYYCQQSRAVPFTFGGGTKVEIK
0.59 fold	51.7 nM	0.00311 s⁻¹	60500 M⁻¹ s⁻¹	v37882 (antibody, V domains shown, OAA format as v34891; also called huTN228 S1036T (VH) OAA) VH: QVQLQESGPGLVKPSETLSLTCAVSGFSLTTYGVHWIRQPPGKGLEWLGVIWPGGGTNFNSALMSRLTISEDTSKNQVSLKLSSVTAADTAVYYCARDRAYGNYLYAMDYWGQGTLVTVSS VL: DIQMTQSPSSLSASVGDRVTITCRASESVEYYVTSLMQWYQQKPGKAPKLLIYAASNVDSGVPSRFSGSGSGTDFTLTISSLQPEDIATYYCQQSRKVPFTFGGGTKVEIK
3.81 fold	335 nM	0.029 s⁻¹	86800 M⁻¹ s⁻¹	v37883 (antibody, V domains shown, OAA format as v34891; also called huTN228 N1111AQ (VH) OAA) VH: QVQLQESGPGLVKPSETLSLTCAVSGFSLTSYGVHWIRQPPGKGLEWLGVIWPGGGTNFNSALMSRLTISEDTSKNQVSLKLSSVTAADTAVYYCARDRAYGQYLYAMDYWGQGTLVTVSS VL: DIQMTQSPSSLSASVGDRVTITCRASESVEYYVTSLMQWYQQKPGKAPKLLIYAASNVDSGVPSRFSGSGSGTDFTLTISSLQPEDIATYYCQQSRKVPFTFGGGTKVEIK
0.59 fold	52.1 nM	0.00321 s⁻¹	61800 M⁻¹ s⁻¹	v37874 (antibody, V domains shown, OAA format; also called huTN228 N1066A (VL) OAA) VH: QVQLQESGPGLVKPSETLSLTCAVSGFSLTSYGVHWIRQPPGKGLEWLGVIWPGGGTNFNSALMSRLTISEDTSKNQVSLKLSSVTAADTAVYYCARDRAYGNYLYAMDYWGQGTLVTVSS VL: DIQMTQSPSSLSASVGDRVTITCRASESVEYYVTSLMQWYQQKPGKAPKLLIYAASAVDSGVPSRFSGSGSGTDFTLTISSLQPEDIATYYCQQSRKVPFTFGGGTKVEIK
0.53 fold	46.6 nM	0.00315 s⁻¹	67600 M⁻¹ s⁻¹	v37875 (antibody, V domains shown, OAA format as v34891; also called huTN228 D1068A (VL) OAA) VH: QVQLQESGPGLVKPSETLSLTCAVSGFSLTSYGVHWIRQPPGKGLEWLGVIWPGGGTNFNSALMSRLTISEDTSKNQVSLKLSSVTAADTAVYYCARDRAYGNYLYAMDYWGQGTLVTVSS VL: DIQMTQSPSSLSASVGDRVTITCRASESVEYYVTSLMQWYQQKPGKAPKLLIYAASNVASGVPSRFSGSGSGTDFTLTISSLQPEDIATYYCQQSRKVPFTFGGGTKVEIK
0.54 fold	47.7 nM	0.0028 s⁻¹	58800 M⁻¹ s⁻¹	v37891 (antibody, V domains shown, OAA format as v34891; also called huTN228 L1053I (VH) OAA) VH: QVQLQESGPGLVKPSETLSLTCAVSGFSLTSYGVHWIRQPPGKGLEWIGVIWPGGGTNFNSALMSRLTISEDTSKNQVSLKLSSVTAADTAVYYCARDRAYGNYLYAMDYWGQGTLVTVSS VL: DIQMTQSPSSLSASVGDRVTITCRASESVEYYVTSLMQWYQQKPGKAPKLLIYAASNVDSGVPSRFSGSGSGTDFTLTISSLQPEDIATYYCQQSRKVPFTFGGGTKVEIK
0.66 fold	57.8 nM	0.00349 s⁻¹	60800 M⁻¹ s⁻¹	v37890 (antibody, V domains shown, OAA format as v34891; also called huTN228 A1024T (VH) OAA) VH: QVQLQESGPGLVKPSETLSLTCTVSGFSLTSYGVHWIRQPPGKGLEWLGVIWPGGGTNFNSALMSRLTISEDTSKNQVSLKLSSVTAADTAVYYCARDRAYGNYLYAMDYWGQGTLVTVSS VL: DIQMTQSPSSLSASVGDRVTITCRASESVEYYVTSLMQWYQQKPGKAPKLLIYAASNVDSGVPSRFSGSGSGTDFTLTISSLQPEDIATYYCQQSRKVPFTFGGGTKVEIK
0.64 fold	56.4 nM	0.00326 s⁻¹	57800 M⁻¹ s⁻¹	v37876 (antibody, V domains shown, OAA format as v34891; also called huTN228 S1069A (VL) OAA) VH: QVQLQESGPGLVKPSETLSLTCAVSGFSLTSYGVHWIRQPPGKGLEWLGVIWPGGGTNFNSALMSRLTISEDTSKNQVSLKLSSVTAADTAVYYCARDRAYGNYLYAMDYWGQGTLVTVSS VL: DIQMTQSPSSLSASVGDRVTITCRASESVEYYVTSLMQWYQQKPGKAPKLLIYAASNVDAGVPSRFSGSGSGTDFTLTISSLQPEDIATYYCQQSRKVPFTFGGGTKVEIK
0.39 fold	34.7 nM	0.00174 s⁻¹	50300 M⁻¹ s⁻¹	v37879 (antibody, V domains shown, OAA format as v34891; also called huTN228 V1114A (VL) OAA) VH: QVQLQESGPGLVKPSETLSLTCAVSGFSLTSYGVHWIRQPPGKGLEWLGVIWPGGGTNFNSALMSRLTISEDTSKNQVSLKLSSVTAADTAVYYCARDRAYGNYLYAMDYWGQGTLVTVSS VL: DIQMTQSPSSLSASVGDRVTITCRASESVEYYVTSLMQWYQQKPGKAPKLLIYAASNVDSGVPSRFSGSGSGTDFTLTISSLQPEDIATYYCQQSRKAPFTFGGGTKVEIK
0.61 fold	53.8 nM	0.00319 s⁻¹	59200 M⁻¹ s⁻¹	v37888 (antibody, V domains shown, OAA format as v34891; also called huTN228 N1066Q (VL) OAA) VH: QVQLQESGPGLVKPSETLSLTCAVSGFSLTSYGVHWIRQPPGKGLEWLGVIWPGGGTNFNSALMSRLTISEDTSKNQVSLKLSSVTAADTAVYYCARDRAYGNYLYAMDYWGQGTLVTVSS VL: DIQMTQSPSSLSASVGDRVTITCRASESVEYYVTSLMQWYQQKPGKAPKLLIYAASQVDSGVPSRFSGSGSGTDFTLTISSLQPEDIATYYCQQSRKVPFTFGGGTKVEIK
1.51 fold	133 nM	0.00993 s⁻¹	76000 M⁻¹ s⁻¹	v37884 (antibody, V domains shown, OAA format as v34891; also called huTN228 L1112AI (VH) OAA) VH: QVQLQESGPGLVKPSETLSLTCAVSGFSLTSYGVHWIRQPPGKGLEWLGVIWPGGGTNFNSALMSRLTISEDTSKNQVSLKLSSVTAADTAVYYCARDRAYGNYIYAMDYWGQGTLVTVSS VL: DIQMTQSPSSLSASVGDRVTITCRASESVEYYVTSLMQWYQQKPGKAPKLLIYAASNVDSGVPSRFSGSGSGTDFTLTISSLQPEDIATYYCQQSRKVPFTFGGGTKVEIK
